The values below are quoted from earlier work in article PMC9590617.

Data set [1] addresses NPFFR2 (Homo sapiens) (UniProt Q9Y5X5).
The target of data set [2] is NPFFR1 (Homo sapiens) (UniProt Q9GZQ6).
Sequence of UniProt Q9GZQ6 (Q9GZQ6 whole entry): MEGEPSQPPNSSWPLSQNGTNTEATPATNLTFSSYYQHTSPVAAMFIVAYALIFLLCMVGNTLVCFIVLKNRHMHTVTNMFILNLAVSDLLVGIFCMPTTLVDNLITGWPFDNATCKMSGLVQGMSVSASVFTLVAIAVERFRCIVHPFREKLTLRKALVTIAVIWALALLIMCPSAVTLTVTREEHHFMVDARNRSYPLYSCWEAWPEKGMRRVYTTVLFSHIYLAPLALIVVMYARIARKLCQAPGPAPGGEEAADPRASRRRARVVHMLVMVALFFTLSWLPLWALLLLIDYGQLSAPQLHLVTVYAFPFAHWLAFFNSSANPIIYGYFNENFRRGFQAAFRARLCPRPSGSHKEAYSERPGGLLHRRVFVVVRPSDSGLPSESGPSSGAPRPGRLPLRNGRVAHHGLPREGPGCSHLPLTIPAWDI

Sequence of UniProt Q9Y5X5 (Q9Y5X5 whole entry): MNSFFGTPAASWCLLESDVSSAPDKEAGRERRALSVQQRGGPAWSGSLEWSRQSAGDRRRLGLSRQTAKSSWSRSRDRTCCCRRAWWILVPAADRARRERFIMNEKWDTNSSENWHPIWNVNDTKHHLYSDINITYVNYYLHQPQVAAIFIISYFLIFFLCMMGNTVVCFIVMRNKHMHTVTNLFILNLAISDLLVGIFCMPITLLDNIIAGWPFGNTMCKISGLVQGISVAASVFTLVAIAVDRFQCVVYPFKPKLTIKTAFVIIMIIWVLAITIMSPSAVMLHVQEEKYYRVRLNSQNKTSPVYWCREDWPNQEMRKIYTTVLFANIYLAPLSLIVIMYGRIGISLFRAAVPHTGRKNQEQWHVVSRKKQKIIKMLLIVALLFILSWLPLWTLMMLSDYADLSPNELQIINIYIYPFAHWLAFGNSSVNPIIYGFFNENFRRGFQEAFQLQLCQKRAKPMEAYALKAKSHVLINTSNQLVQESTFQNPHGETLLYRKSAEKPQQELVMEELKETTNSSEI

Take Neuropeptide FF (from UniProt O15130): the results for the Kd in data set [1] and in data set [2] were 0.37 nM and 1.13 nM, respectively.
